Experimental findings from US20260109761A1 (IP2IPO INNOVATIONS, published 2026) are described below.

The target in experiment [1] is T1, huZIP12-ECD-GST (human, UniProt Q504Y0 24-202).
T1 construct: also called hZIP12-ECD-GST; human ZIP12-ECD-GST; not shown: glutathione S-transferase (GST) tag
Description: SPR single cycle kinetics (Biacore): mAb captured on protein A, huZIP12-ECD-GST injected at 3.12-800 nM. The protocol:
(§1) Single Cycle Kinetics (SCK) involves first capturing the mAb onto the protein A sensor surface and then sequentially injecting a series of concentrations of huZIP12-ECD-GST over the surface starting at the lowest concentration and ending with the highest concentration. The final concentration is followed by a dissociation phase where buffer only is passed across the surface followed by regeneration, where the remaining bound huZIP12-ECD-GST is removed from the surface by injection of a 10 mM Glycine pH 1.5 and 50 mM NaOH solution. The SCK is repeated for each monoclonal antibody providing duplicate data and the kinetics of each interaction is evaluated by the Biacore software.
(§2) Referring to FIG. 6, there are shown the kinetic parameters obtained for all antibody variants when screened with the 3.12 nM to 800 nM huZIP12-ECD-GST. […] Affinity.
A general note: In SPR one partner is held on a chip, and binding of the other changes the refractive index at the surface.

The target in experiment [2] is T1, huZIP12-ECD-GST. The experiment is described as follows: SPR single cycle kinetics (Biacore): mAb captured on protein A, huZIP12-ECD-GST injected at 2.34-600 nM, extended dissociation. The protocol:
as §1
A selection of the higher affinity antibody variants were re-tested at a lower concentration series with an extended dissociation time with the objective of obtaining a better assessment of the binding kinetics. Referring now to FIG. 7, there are shown the data for the monoclonal antibodies that were re-tested to optimise the binding kinetic data. Once again, three antibody variants, H3_W99H_L1, H3_W99HL2 and H3_W99H_VL-par, all appear to have a higher affinity than the parent antibody. The on-rate (ka), off-rate (kd) and overall affinity measurement (KD) are all improved compared to the 51B12 VH_VL_par parent antibody.

Experiment [3] concerns the target T1, huZIP12-ECD-GST. Description: SPR single cycle kinetics, mAb captured on protein A, 3.12-800 nM huZIP12-ECD-GST. The method, then:
as §1, §2

T1 sequence (Q504Y0 24-202): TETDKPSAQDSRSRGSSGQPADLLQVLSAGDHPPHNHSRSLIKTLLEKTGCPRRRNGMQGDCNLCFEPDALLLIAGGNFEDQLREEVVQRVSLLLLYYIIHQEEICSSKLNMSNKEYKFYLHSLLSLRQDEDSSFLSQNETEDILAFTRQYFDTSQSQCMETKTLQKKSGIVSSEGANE

B1: H2_G66Q_L2 (antibody, V domains shown)
VH: QVQLVESGGGVVQPGRSLRLSCAASGFTFSDYGMHWVRQAPGKGLEWVAYISSGGTTIYYADTVKQRFTISRDNSKNTLYLQMNSLRAEDTAVYYCARWTNLYAMDYWGQGTTVTVSS
VL: DIVLTQSPDSLAVSLGERATINCRASKSVSTSGYSYMHWYQQKPGQPPKFLIYLASNKESGVPDRFSGSGSGTDFTLTISSLQAEDVAVYYCQHSREVPYTFGGGTKVEIKR
notes: Fc null human IgG1 / human kappa
Turning to B1, in the experiment with huZIP12-ECD-GST [1], the Kd (commonly the concentration at which binding is half-saturated) turned out to be 1.17 nM; the koff (as a rule, the first-order rate constant of dissociation) was 3.42e-05 s⁻¹; the association rate constant (kon) (usually the second-order rate constant of association) was found to be 29100 M⁻¹ s⁻¹. In the experiment with huZIP12-ECD-GST [2], binding was put at a Kd of 1.2 nM, the koff was found to be 3.59e-05 s⁻¹ and the kon came out at 30000 M⁻¹ s⁻¹.

B2: H2_T56H_VL-par (antibody, V domains shown)
VH: QVQLVESGGGVVQPGRSLRLSCAASGFTFSDYGMHWVRQAPGKGLEWVAYISSGGHTIYYADTVKGRFTISRDNSKNTLYLQMNSLRAEDTAVYYCARWTNLYAMDYWGQGTTVTVSS
VL: DIVLTQSPDSLAVSLGERATINCRASKSVSTSGYSYMHWYQQKPGQPPKFLIYLASNLESGVPDRFSGSGSGTDFTLTISSLQAEDVAVYYCQHSREVPYTFGGGTKVEIKR
notes: as for B1
In the experiment with huZIP12-ECD-GST [1], B2 showed a Kd of 1.29 nM, a koff of 3.38e-05 s⁻¹ and a kon of 26200 M⁻¹ s⁻¹. In the experiment with huZIP12-ECD-GST [2], this molecule yielded a Kd of 0.591 nM, a koff of 1.51e-05 s⁻¹ and a kon of 25600 M⁻¹ s⁻¹.

B3: H2_T63Y_L1 (antibody, V domains shown)
VH: QVQLVESGGGVVQPGRSLRLSCAASGFTFSDYGMHWVRQAPGKGLEWVAYISSGGTTIYYADYVKGRFTISRDNSKNTLYLQMNSLRAEDTAVYYCARWTNLYAMDYWGQGTTVTVSS
VL: DIVLTQSPDSLAVSLGERATINCRASKSVSTQGYSYMHWYQQKPGQPPKFLIYLASNLESGVPDRFSGSGSGTDFTLTISSLQAEDVAVYYCQHSREVPYTFGGGTKVEIKR
notes: as for B1
As for B3, in the experiment with huZIP12-ECD-GST [1], the dissociation constant (Kd) was found to be 1.07 nM, the koff came out at 3.16e-05 s⁻¹ and the kon is 29600 M⁻¹ s⁻¹. In addition, in the experiment with huZIP12-ECD-GST [2], the Kd was 1.34 nM, the koff is 3.68e-05 s⁻¹ and the kon came to 27500 M⁻¹ s⁻¹.

B4: H2_T63Y_VL-par (antibody, V domains shown)
VH: QVQLVESGGGVVQPGRSLRLSCAASGFTFSDYGMHWVRQAPGKGLEWVAYISSGGTTIYYADYVKGRFTISRDNSKNTLYLQMNSLRAEDTAVYYCARWTNLYAMDYWGQGTTVTVSS
VL: DIVLTQSPDSLAVSLGERATINCRASKSVSTSGYSYMHWYQQKPGQPPKFLIYLASNLESGVPDRFSGSGSGTDFTLTISSLQAEDVAVYYCQHSREVPYTFGGGTKVEIKR
notes: as for B1
Turning to B4, in the experiment with huZIP12-ECD-GST [1], the Kd is 1.03 nM, the dissociation rate constant (koff) stood at 3.04e-05 s⁻¹ and the kon was 29600 M⁻¹ s⁻¹. For the same molecule, in the experiment with huZIP12-ECD-GST [2], the Kd came out at 0.868 nM, the koff came to 2.51e-05 s⁻¹ and the kon was 28900 M⁻¹ s⁻¹.

B5: H3_W99H_L2 (antibody, V domains shown)
VH: QVQLVESGGGVVQPGRSLRLSCAASGFTFSDYGMHWVRQAPGKGLEWVAYISSGGTTIYYADTVKGRFTISRDNSKNTLYLQMNSLRAEDTAVYYCARHTNLYAMDYWGQGTTVTVSS
VL: DIVLTQSPDSLAVSLGERATINCRASKSVSTSGYSYMHWYQQKPGQPPKFLIYLASNKESGVPDRFSGSGSGTDFTLTISSLQAEDVAVYYCQHSREVPYTFGGGTKVEIKR
notes: as for B1
With B5, in the experiment with huZIP12-ECD-GST [1], the affinity, expressed as Kd, was 0.472 nM; the koff came out at 3.98e-05 s⁻¹; the kon stood at 84300 M⁻¹ s⁻¹. Besides, in the experiment with huZIP12-ECD-GST [2], the affinity, expressed as Kd, was 0.339 nM; the koff was found to be 3.16e-05 s⁻¹; the kon came out at 93100 M⁻¹ s⁻¹. This molecule gave an equilibrium dissociation constant (Kd) with huZIP12-ECD-GST [3] of around 0.5 nM.

B6: H2_T57H_L1 (antibody, V domains shown)
VH: QVQLVESGGGVVQPGRSLRLSCAASGFTFSDYGMHWVRQAPGKGLEWVAYISSGGTHIYYADTVKGRFTISRDNSKNTLYLQMNSLRAEDTAVYYCARWTNLYAMDYWGQGTTVTVSS
VL: DIVLTQSPDSLAVSLGERATINCRASKSVSTQGYSYMHWYQQKPGQPPKFLIYLASNLESGVPDRFSGSGSGTDFTLTISSLQAEDVAVYYCQHSREVPYTFGGGTKVEIKR
notes: as for B1
Consider B6, for which, in the experiment with huZIP12-ECD-GST [1], binding was put at a Kd of 0.743 nM, the koff is 3.3e-05 s⁻¹ and the kon amounted to 44400 M⁻¹ s⁻¹. In the experiment with huZIP12-ECD-GST [2], this molecule returned a dissociation constant Kd of 0.971 nM, a koff of 4.18e-05 s⁻¹ and a kon of 43100 M⁻¹ s⁻¹.

B7: H2_G66Q_VL-par (antibody, V domains shown)
VH: QVQLVESGGGVVQPGRSLRLSCAASGFTFSDYGMHWVRQAPGKGLEWVAYISSGGTTIYYADTVKQRFTISRDNSKNTLYLQMNSLRAEDTAVYYCARWTNLYAMDYWGQGTTVTVSS
VL: DIVLTQSPDSLAVSLGERATINCRASKSVSTSGYSYMHWYQQKPGQPPKFLIYLASNLESGVPDRFSGSGSGTDFTLTISSLQAEDVAVYYCQHSREVPYTFGGGTKVEIKR
notes: as for B1
In the experiment with huZIP12-ECD-GST [1], B7 came in with a Kd of 1.08 nM, a koff of 3.72e-05 s⁻¹ and a kon of 34400 M⁻¹ s⁻¹. For the same molecule, in the experiment with huZIP12-ECD-GST [2], the Kd amounted to 0.83 nM, the koff turned out to be 2.78e-05 s⁻¹ and the kon turned out to be 33600 M⁻¹ s⁻¹.

B8: H2_Y60K_VL-par (antibody, V domains shown)
VH: QVQLVESGGGVVQPGRSLRLSCAASGFTFSDYGMHWVRQAPGKGLEWVAYISSGGTTIYKADTVKGRFTISRDNSKNTLYLQMNSLRAEDTAVYYCARWTNLYAMDYWGQGTTVTVSS
VL: DIVLTQSPDSLAVSLGERATINCRASKSVSTSGYSYMHWYQQKPGQPPKFLIYLASNLESGVPDRFSGSGSGTDFTLTISSLQAEDVAVYYCQHSREVPYTFGGGTKVEIKR
notes: as for B1
B8: in the experiment with huZIP12-ECD-GST [1], the Kd is 1.09 nM, the koff was found to be 4.01e-05 s⁻¹ and the kon is 36700 M⁻¹ s⁻¹. In the experiment with huZIP12-ECD-GST [2], the Kd stood at 0.829 nM, the koff turned out to be 3.26e-05 s⁻¹ and the kon is 39400 M⁻¹ s⁻¹.

B9: H2_T57H_VL-par (antibody, V domains shown)
VH: QVQLVESGGGVVQPGRSLRLSCAASGFTFSDYGMHWVRQAPGKGLEWVAYISSGGTHIYYADTVKGRFTISRDNSKNTLYLQMNSLRAEDTAVYYCARWTNLYAMDYWGQGTTVTVSS
VL: DIVLTQSPDSLAVSLGERATINCRASKSVSTSGYSYMHWYQQKPGQPPKFLIYLASNLESGVPDRFSGSGSGTDFTLTISSLQAEDVAVYYCQHSREVPYTFGGGTKVEIKR
notes: as for B1
B9: in the experiment with huZIP12-ECD-GST [1], the Kd came to 0.791 nM, the koff turned out to be 3.47e-05 s⁻¹ and the kon is 43900 M⁻¹ s⁻¹. In the experiment with huZIP12-ECD-GST [2], the affinity, expressed as Kd, was 0.792 nM; the koff amounted to 3.3e-05 s⁻¹; the kon was 41600 M⁻¹ s⁻¹.

B10: H2_Y60K_L1 (antibody, V domains shown)
VH: QVQLVESGGGVVQPGRSLRLSCAASGFTFSDYGMHWVRQAPGKGLEWVAYISSGGTTIYKADTVKGRFTISRDNSKNTLYLQMNSLRAEDTAVYYCARWTNLYAMDYWGQGTTVTVSS
VL: DIVLTQSPDSLAVSLGERATINCRASKSVSTQGYSYMHWYQQKPGQPPKFLIYLASNLESGVPDRFSGSGSGTDFTLTISSLQAEDVAVYYCQHSREVPYTFGGGTKVEIKR
notes: as for B1
In the case of B10, in the experiment with huZIP12-ECD-GST [1], the dissociation constant (Kd) came out at 0.957 nM, the koff worked out at 3.7e-05 s⁻¹ and the kon is 38600 M⁻¹ s⁻¹. In the experiment with huZIP12-ECD-GST [2], the Kd was 0.604 nM, the koff worked out at 2.25e-05 s⁻¹ and the kon amounted to 37200 M⁻¹ s⁻¹.

B11: H3_M105P_VL-par (antibody, V domains shown)
VH: QVQLVESGGGVVQPGRSLRLSCAASGFTFSDYGMHWVRQAPGKGLEWVAYISSGGTTIYYADTVKGRFTISRDNSKNTLYLQMNSLRAEDTAVYYCARWTNLYAPDYWGQGTTVTVSS
VL: DIVLTQSPDSLAVSLGERATINCRASKSVSTSGYSYMHWYQQKPGQPPKFLIYLASNLESGVPDRFSGSGSGTDFTLTISSLQAEDVAVYYCQHSREVPYTFGGGTKVEIKR
notes: as for B1
In the experiment with huZIP12-ECD-GST [1], B11 showed a Kd of 1.63 nM, a koff of 4.03e-05 s⁻¹ and a kon of 24700 M⁻¹ s⁻¹.
